Source: patent publication US6344362

Biological target: SCCA1 recombinant protein expressed on transfected HepG2 and CHO cells (human)

Substance: HBV viral particles present in the serum of patients with acute hepatitis B
- HBV-DNA values of transfected cell lines relative to control cell lines: 8 times
